Data on one molecule can be found in paper PMC4856084, “The SEB-1 Transcription Factor Binds to the STRE Motif in Neurospora crassa and Regulates a Variety of Cellular Processes Including the Stress Response and Reserve Carbohydrate Metabolism”.

This data set concerns the target GST-SEB-1 (Neurospora crassa, UniProt Q7SH58 1-575). Put plainly: competition. Conditions: protein: recombinant; tags: N-terminal GST (pGEX-4T1); blunt.

B1: STRE1 oligonucleotide (18 bp) (dsDNA)
DNA 1: GGGATCCCCCTTGAATAC
DNA 2: GTATTCAAGGGGGATCCC
With B1, the binding result is on record as “binds”.
